B1: Ras-related protein Rab-8A (Homo sapiens), P61006 (parent)
chain: MAKTYDYLFKLLLIGDSGVGKTCVLFRFSEDAFNSTFISTIGIDFKIRTIELDGKRIKLQIWDTAGQERFRTITTAYYRGAMGIMLVYDITNEKSFDNIRNWIRNIEEHASADVEKMILGNKCDVNDKRQVSKERGEKLALDYGIKFMETSAKANINVENAFFTLARDIKAKMDKKLEGNSPQGSNQGVKITPDQQKRSSFFRCVLL

Variants of: B1
Details: with optn_human OPTN

Variant | effect of a mutation on the interaction
T22N | decreasing interaction

Source: IntAct's records for PubMed 20388642
